Two molecules from article PMC3350598 (Structure(London, England:1993), 2012) can be followed below.

Test [1] addresses T1, Broxs, short form of the human Brox protein (residues 2-377) (human, UniProt Q5VW32 2-377).
T1 sequence (looked up): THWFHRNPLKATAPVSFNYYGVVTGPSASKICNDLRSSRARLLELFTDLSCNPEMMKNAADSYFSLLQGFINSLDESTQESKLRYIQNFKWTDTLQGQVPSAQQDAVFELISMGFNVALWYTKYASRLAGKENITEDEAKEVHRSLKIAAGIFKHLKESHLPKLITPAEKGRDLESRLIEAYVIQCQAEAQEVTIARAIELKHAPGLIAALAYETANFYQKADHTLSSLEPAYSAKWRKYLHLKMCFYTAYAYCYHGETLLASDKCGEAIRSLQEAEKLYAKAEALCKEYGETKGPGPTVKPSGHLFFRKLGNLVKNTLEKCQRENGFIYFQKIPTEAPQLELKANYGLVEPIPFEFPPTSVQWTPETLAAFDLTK
The test is described as follows: crystal structure.

Test [2] has as its target T2, Broxl, long form of the human Brox protein (residues 2-411) (human, UniProt Q5VW32 2-411).
T2 sequence (looked up): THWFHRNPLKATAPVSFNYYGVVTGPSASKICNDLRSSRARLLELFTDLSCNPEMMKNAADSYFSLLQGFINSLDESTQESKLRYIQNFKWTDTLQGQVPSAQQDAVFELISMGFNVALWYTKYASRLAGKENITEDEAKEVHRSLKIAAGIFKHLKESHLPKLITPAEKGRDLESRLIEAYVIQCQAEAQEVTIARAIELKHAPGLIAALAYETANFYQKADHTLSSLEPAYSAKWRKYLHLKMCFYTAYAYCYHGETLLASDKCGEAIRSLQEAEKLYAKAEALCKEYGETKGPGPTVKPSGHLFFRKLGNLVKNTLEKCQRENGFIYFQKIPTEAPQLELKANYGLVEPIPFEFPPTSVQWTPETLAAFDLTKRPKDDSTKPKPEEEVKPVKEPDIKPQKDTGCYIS
The test is described as follows: crystal structure.

As to TKNKDGVLVDEFGLPQIPAS [synthesized peptide corresponding to the CHMP5 C-terminal 20 residues], the binding result in test [1] and in test [2] was “binds” each time.

B1: C-terminal fragment of human CHMP5 (residues 151-219) (domain or fragment, UniProt Q9NZZ3 151-219, looked up)
chain: RSYGTPELDEDDLEAELDALGDELLADEDSSYLDEAASAPAIPEGVPTDTKNKDGVLVDEFGLPQIPAS
Consider B1, for which the binding result in test [1] and in test [2] was “binds” throughout.
